{"source": "patent US12552834", "about": "(MIT, dated 2026)", "key": {"[1]": {"target": "T1, EVL EVH1 domain (wild type) (Mus musculus (Mouse), UniProt P70429 1-116)", "T1 construct": "EVL numbering counts from the Met at position 25 of the entry; also called WT EVL EVH1 domain", "T1 sequence (P70429 other isoform, or with tags, fused parts or gaps limits assumed)": "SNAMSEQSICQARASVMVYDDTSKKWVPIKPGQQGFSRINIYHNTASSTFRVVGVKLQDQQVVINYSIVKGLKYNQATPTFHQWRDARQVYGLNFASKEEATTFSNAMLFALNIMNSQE", "assay": "BLI steady state, immobilised SUMO-PCARE B, EVH1 domain in solution"}, "[2]": {"target": "T2, EVL EVH1 swapped (residue swapped) (Homo sapiens (Human), UniProt Q9UI08 1-109)", "T2 construct": "also called EVL swapped; residue-swapped EVL EVH1 domain", "T2 sequence (Q9UI08 other isoform, or with tags, fused parts or gaps limits assumed)": "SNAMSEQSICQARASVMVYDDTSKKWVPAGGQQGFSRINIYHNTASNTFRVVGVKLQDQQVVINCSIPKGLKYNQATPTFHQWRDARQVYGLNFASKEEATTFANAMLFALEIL", "assay": "BLI, EVL swapped EVH1 domain in solution"}, "[3]": {"target": "T1, EVL EVH1 domain (wild type)", "assay": "BLI steady state, immobilised SUMO-PCARE B, EVH1 domain in solution", "remark": "listed apart in the source"}, "VASP EVH1 domain [4]": {"target": "T3, VASP EVH1 domain (Homo sapiens (Human), UniProt P50552 1-114)", "T3 construct": "VASP numbering in the text counts from the Met at position 25 of the entry", "T3 sequence (P50552 other isoform, or with tags, fused parts or gaps limits assumed)": "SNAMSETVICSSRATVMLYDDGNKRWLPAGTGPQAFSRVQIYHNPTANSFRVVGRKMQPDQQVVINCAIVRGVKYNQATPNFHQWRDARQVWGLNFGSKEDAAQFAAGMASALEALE", "assay": "BLI steady state, immobilised SUMO-PCARE B, EVH1 domain in solution"}, "[5]": {"target": "T4, ENAH EVH1 domain (monomeric, wild type) (human, UniProt Q03173 1-111 (mouse entry))", "T4 construct": "ENAH residue numbers in the text count from the Met at position 25 of this entry; also called ENAH EVH1 WT; Mena EVH1 WT", "T4 sequence (Q03173 other isoform, or with tags, fused parts or gaps limits assumed)": "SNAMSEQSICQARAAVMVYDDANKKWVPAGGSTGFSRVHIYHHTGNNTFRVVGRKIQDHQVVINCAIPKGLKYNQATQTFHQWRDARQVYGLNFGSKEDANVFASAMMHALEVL", "assay": "BLI dissociation curves", "description": "(§1) (C) Peptide binding and dissociation curves measured by BLI. Blue, orange, green, red, purple, and brown curves denote EVH1 concentrations in descending order.\n(§2) All BLI experiments were performed with 2 replicates on an Octet Red96 instrument (ForteBio). […] The loaded tips were immersed in a solution of ENAH EVH1 domain at a relevant dilution series in BLI buffer at an orbital shake speed of 1000 rpm and run until the binding signal plateaued. ENAH-bound tips were subsequently placed into BLI buffer only for dissociation and run until the binding signal plateaued. K_D values were obtained through steady state analysis. […] The association phases were then fit to a one-phase binding model in Prism and the equilibrium steady-state binding signal values from that fit were plotted against ENAH concentration and fit to a single-site specific binding model in Prism to obtain dissociation constants. Errors reported are the standard deviation of two replicates."}, "[6]": {"target": "T4, ENAH EVH1 domain (monomeric, wild type)", "assay": "BLI steady state, immobilised SUMO-PCARE-Dual, EVH1 domain in solution", "description": "as §1, §2"}, "[7]": {"target": "T1, EVL EVH1 domain (wild type)", "assay": "BLI steady state, immobilised SUMO-PCARE-Dual, EVH1 domain in solution", "description": "as §1, §2"}, "VASP EVH1 domain [8]": {"target": "T3, VASP EVH1 domain", "assay": "BLI steady state, immobilised SUMO-PCARE-Dual, EVH1 domain in solution", "description": "as §1, §2"}, "[9]": {"target": "T4, ENAH EVH1 domain (monomeric, wild type)", "assay": "BLI dissociation phase, immobilised SUMO-peptide, ENAH EVH1 domain in solution"}, "[10]": {"target": "T4, ENAH EVH1 domain (monomeric, wild type)", "assay": "BLI steady state, immobilised SUMO-peptide, ENAH EVH1 domain in solution", "description": "as §1, §2"}, "[11]": {"target": "T4, ENAH EVH1 domain (monomeric, wild type)", "assay": "BLI", "description": "as §2"}, "[12]": {"target": "T4, ENAH EVH1 domain (monomeric, wild type)", "assay": "BLI, steady state; SUMO-peptide immobilised, EVH1 monomer in solution", "description": "as §2"}, "[13]": {"target": "T4, ENAH EVH1 domain (monomeric, wild type)", "assay": "BLI, steady state; SUMO-peptide immobilised, EVH1 monomer in solution; Table 2 (MassTitr hit validation), not the Table 3 truncation series", "description": "as §2"}, "[14]": {"target": "T4, ENAH EVH1 domain (monomeric, wild type)", "assay": "BLI, steady state; SUMO-peptide immobilised, EVH1 monomer in solution", "remark": "listed apart in the source", "description": "as §2"}, "[15]": {"target": "T4, ENAH EVH1 domain (monomeric, wild type)", "assay": "BLI, monomeric EVH1"}}}
{"binder": "PCARE B (PCARE826-848) (biotinylated (BAP tag)) peptide: MAGGLNDIFEAQKIEWHEDTGGSSHHHHHHGSGSGSDSEVNQEAKPEVKPEVKPETHINLKVSDGSSEIFFKIKKTTPLRRLMEAFAKRQGKEMDSLTFLYDGIEIQADQTPEDLDMEDNDIIEAHREQIGGSGSGNLEHLPPPPMEVLMDKSFASLES", "values": [{"measurement": "Kd", "setting": "[1]", "result": 22, "unit": "µM"}, {"measurement": "Kd", "setting": "[2]", "result": 0.35, "unit": "µM"}, {"measurement": "Kd", "setting": "[3]", "result": 22, "unit": "µM"}, {"measurement": "Kd", "setting": "VASP EVH1 domain [4]", "result": 42, "unit": "µM"}]}
{"binder": "PCARE-Dual peptide (designed binder, biotinylated (BAP tag), Engineered peptide, tested as a SUMO fusion in BLI) peptide: MAGGLNDIFEAQKIEWHEDTGGSSHHHHHHGSGSGSDSEVNQEAKPEVKPEVKPETHINLKVSDGSSEIFFKIKKTTPLRRLMEAFAKRQGKEMDSLTFLYDGIEIQADQTPEDLDMEDNDIIEAHREQIGGSGSGNLEHLPPPPMEVLMDKSFASLESGSGSPPPPPF", "values": [{"measurement": "fold slower dissociation than dual-motif peptide LPP", "setting": "[5]", "result": "~100", "unit": "fold"}, {"measurement": "Kd", "setting": "[6]", "result": 0.048, "unit": "µM"}, {"measurement": "Kd", "setting": "[7]", "result": 21, "unit": "µM"}, {"measurement": "Kd", "setting": "VASP EVH1 domain [8]", "result": 28, "unit": "µM"}, {"measurement": "koff", "setting": "[9]", "result": 0.045, "unit": "s⁻¹"}, {"measurement": "Kd", "setting": "[10]", "result": 0.048, "unit": "µM"}, {"measurement": "Kd", "setting": "[11]", "result": 0.05, "unit": "µM"}, {"measurement": "fold tighter binding than PCARE B", "setting": "[11]", "result": "~7", "unit": "fold"}]}
{"binder": "ABI1 36mer peptide (biotinylated (BAP tag)) peptide: MAGGLNDIFEAQKIEWHEDTGGSSHHHHHHGSGSGSDSEVNQEAKPEVKPEVKPETHINLKVSDGSSEIFFKIKKTTPLRRLMEAFAKRQGKEMDSLTFLYDGIEIQADQTPEDLDMEDNDIIEAHREQIGGSGSGFDDFPPPPPPPPVDYEDEEAAVVQYNDPYADGDPAW", "values": [{"measurement": "Kd", "setting": "[12]", "result": 4.01, "unit": "µM"}, {"measurement": "Kd", "setting": "[13]", "result": 2.44, "unit": "µM"}]}
{"binder": "TENM1 36-mer peptide (biotinylated (BAP tag), Tested as a biotinylated BAP-6xHis-SUMO-peptide fusion; The text calls it TEN1; it contains both an FP4 and a CXC motif; also called TEN1) peptide: MAGGLNDIFEAQKIEWHEDTGGSSHHHHHHGSGSGSDSEVNQEAKPEVKPEVKPETHINLKVSDGSSEIFFKIKKTTPLRRLMEAFAKRQGKEMDSLTFLYDGIEIQADQTPEDLDMEDNDIIEAHREQIGGSGSGGSTQDVQSSPHNQFTFRPLPPPPPPPHACTCARKPP", "values": [{"measurement": "Kd", "setting": "[14]", "result": 62.9, "unit": "µM"}, {"measurement": "Kd", "setting": "[15]", "result": "> 60", "unit": "µM"}]}
